Measurements reported in publication PMC2532730 (Nucleic Acids Research, 2008).

Target: BLM (Bloom's syndrome helicase), purified recombinant (human, UniProt P54132 1-1417)
Assay: far-Western, overlay or dot blot

Chain of BLM (Bloom's syndrome helicase), purified recombinant (P54132 whole entry): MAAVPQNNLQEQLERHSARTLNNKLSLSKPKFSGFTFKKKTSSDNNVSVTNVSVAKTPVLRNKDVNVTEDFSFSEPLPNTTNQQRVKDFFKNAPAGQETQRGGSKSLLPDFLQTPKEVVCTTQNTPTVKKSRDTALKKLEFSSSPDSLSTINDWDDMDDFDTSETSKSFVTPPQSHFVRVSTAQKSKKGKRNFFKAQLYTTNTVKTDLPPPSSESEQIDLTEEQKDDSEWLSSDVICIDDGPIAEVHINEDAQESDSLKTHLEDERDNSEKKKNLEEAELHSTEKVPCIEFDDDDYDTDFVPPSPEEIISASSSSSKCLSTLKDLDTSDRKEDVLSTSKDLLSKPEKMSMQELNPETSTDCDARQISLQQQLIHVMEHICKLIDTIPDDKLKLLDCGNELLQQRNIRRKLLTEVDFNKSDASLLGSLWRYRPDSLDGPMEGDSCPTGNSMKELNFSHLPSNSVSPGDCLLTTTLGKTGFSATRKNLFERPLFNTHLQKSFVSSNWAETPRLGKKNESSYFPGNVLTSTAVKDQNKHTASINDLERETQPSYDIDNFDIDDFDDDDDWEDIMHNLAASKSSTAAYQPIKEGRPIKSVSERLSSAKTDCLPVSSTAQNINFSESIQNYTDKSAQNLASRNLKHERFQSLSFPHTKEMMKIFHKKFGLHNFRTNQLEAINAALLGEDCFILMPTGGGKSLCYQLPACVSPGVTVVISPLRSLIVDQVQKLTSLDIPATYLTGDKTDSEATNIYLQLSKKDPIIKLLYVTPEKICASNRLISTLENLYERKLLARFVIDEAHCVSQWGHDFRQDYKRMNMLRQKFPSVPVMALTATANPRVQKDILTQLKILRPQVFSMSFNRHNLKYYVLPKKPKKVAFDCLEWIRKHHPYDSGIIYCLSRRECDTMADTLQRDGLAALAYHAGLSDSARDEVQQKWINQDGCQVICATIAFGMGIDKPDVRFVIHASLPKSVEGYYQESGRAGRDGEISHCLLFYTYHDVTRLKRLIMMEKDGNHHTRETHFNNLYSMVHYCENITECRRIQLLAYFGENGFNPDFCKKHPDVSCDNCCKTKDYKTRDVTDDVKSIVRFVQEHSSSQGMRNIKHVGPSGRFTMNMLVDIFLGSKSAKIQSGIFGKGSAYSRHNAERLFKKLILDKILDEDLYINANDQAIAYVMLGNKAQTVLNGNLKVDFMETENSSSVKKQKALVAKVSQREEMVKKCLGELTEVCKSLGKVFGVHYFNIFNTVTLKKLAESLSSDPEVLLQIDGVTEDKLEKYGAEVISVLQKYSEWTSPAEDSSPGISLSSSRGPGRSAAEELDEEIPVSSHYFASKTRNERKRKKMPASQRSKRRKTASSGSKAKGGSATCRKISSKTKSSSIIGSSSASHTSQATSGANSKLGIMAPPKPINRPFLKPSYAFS

| binding result | Binder |
| --- | --- |
| binds | p12 subunit of the purified four-subunit hPOL δ enzyme (natural protein, human, UniProt Q9HCU8 1-107, looked up) MGRKRLITDSYPVVKRREGPAGHSKGELAPELGEEPQPRDEEEAELELLRQFDLAWQYGPCTGITRLQRWCRAKQMGLEPPPEVWQVLKTHPGDPRFQCSLWHLYPL |
| binds | 6xHis-p12 protein (p12, smallest subunit of human DNA polymerase δ), purified recombinant (natural protein, UniProt Q9HCU8 1-107, looked up) MGRKRLITDSYPVVKRREGPAGHSKGELAPELGEEPQPRDEEEAELELLRQFDLAWQYGPCTGITRLQRWCRAKQMGLEPPPEVWQVLKTHPGDPRFQCSLWHLYPL |
